From PMC5910400 (2018)
Substitutions are numbered along the chain they refer to.

B1: CCL3L1 (ligand)
chain: APLAADTPTACCFSYTSRQIPQNFIADYFETSSQCSKPSVIFLTKRGRQVCADPSEEWVQKYVSDLELSA
B2: P1243 (evasin from Amblyomma americanum), purified, C-terminal StrepII:8xHis tag (natural protein)
chain: ETGRNHTEDNSTEYYDYEEARCACPARHLNNTNGTVLKLLGCHYFCNGTLCTAPDGYPCYNLTAQQVRTLTTYPNTSCAVGVCMKGTCVKNGTMEQCFKTP
B3: P1156 (evasin from Ixodes ricinus), purified, C-terminal StrepII:His tag (natural protein)
chain: DGGADDDNELFTVQYCGMNCTKDEGGTWTGCTGKKEGCKCYHESGKNYGLCLSTEYTDFSQYGNPSDSEIEAAKPKRSDTLSH
B4: CCL17 (protein)
chain: ARGTNVGRECCLEYFKGAIPLRKLKTWYQTSEDCSRDAIVFVTVQGRAICSDPNNKRVKNAVKYLQSLERS

How the values were obtained:
Test in all cases: BLI
[1] = molecular target: P1243:G4S:P1156 two-warhead evasin (Amblyomma americanum | Ixodes ricinus, UniProt A0A0C9S461;V5HBW0)
[2] = molecular target: P1156:G4S:P1243 two-warhead evasin (Ixodes ricinus | Amblyomma americanum, UniProt V5HBW0;A0A0C9S461)
[3] = molecular target: CCL7 (human, UniProt P80098 24-99)
Sequence of CCL7 (P80098 24-99): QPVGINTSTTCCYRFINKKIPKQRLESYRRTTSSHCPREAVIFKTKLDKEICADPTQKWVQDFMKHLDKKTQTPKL

[4] = molecular target: T1, CCL14 (Homo sapiens)
T1 chain: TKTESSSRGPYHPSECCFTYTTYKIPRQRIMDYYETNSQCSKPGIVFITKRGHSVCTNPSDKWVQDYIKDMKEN

[5] = molecular target: T2, CCL24 (Homo sapiens)
T2 chain: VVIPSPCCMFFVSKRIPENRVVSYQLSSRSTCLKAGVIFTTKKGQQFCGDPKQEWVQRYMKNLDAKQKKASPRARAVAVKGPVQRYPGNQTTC

[6] = molecular target: B4
[7] = molecular target: T3, CCL18 (Homo sapiens)
T3 chain: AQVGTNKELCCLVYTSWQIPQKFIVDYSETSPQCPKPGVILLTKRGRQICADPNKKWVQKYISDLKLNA

[8] = molecular target: T4, CCL22 (human, UniProt O00626 25-93)
T4 chain: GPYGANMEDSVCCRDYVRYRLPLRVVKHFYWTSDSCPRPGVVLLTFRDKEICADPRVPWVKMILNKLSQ

[9] = molecular target: T5, CCL1 (human, UniProt P22362 24-96)
T5 chain: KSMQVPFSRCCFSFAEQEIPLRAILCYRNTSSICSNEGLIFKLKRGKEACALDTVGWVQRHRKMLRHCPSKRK

[10] = molecular target: CCL11 (Homo sapiens)
Sequence of CCL11 (Homo sapiens) (chain, as listed by the source): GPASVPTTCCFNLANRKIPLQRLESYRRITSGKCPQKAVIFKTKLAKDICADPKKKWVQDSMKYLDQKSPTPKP

[11] = molecular target: T6, CCL21 (human, UniProt O00585 24-134)
T6 chain: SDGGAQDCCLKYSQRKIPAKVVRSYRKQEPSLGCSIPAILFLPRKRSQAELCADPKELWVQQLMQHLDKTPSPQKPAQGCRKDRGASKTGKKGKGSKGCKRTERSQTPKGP

[12] = molecular target: T7, CCL15 (Homo sapiens)
T7 chain: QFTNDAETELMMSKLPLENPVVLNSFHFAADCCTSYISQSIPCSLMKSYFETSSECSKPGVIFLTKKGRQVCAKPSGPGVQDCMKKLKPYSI

[13] = molecular target: T8, CCL4 (Homo sapiens)
T8 chain: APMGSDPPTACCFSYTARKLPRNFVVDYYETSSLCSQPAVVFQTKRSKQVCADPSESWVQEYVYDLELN

[14] = molecular target: T9, CCL4L1 (Homo sapiens)
T9 chain: T8 chain with S47G

[15] = molecular target: T10, CCL5 (human, UniProt P13501 24-91)
T10 chain: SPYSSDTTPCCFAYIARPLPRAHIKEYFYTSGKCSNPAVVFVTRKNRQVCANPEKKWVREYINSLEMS

[16] = molecular target: T11, CCL27 (Homo sapiens)
T11 chain: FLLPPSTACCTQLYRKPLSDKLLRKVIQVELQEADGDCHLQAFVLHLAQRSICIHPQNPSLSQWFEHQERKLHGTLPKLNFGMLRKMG

[17] = molecular target: CCL13 (human, UniProt Q99616 24-98)
Sequence of CCL13 (Q99616 24-98): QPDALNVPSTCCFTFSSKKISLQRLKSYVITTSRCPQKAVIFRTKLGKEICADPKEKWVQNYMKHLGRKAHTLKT

[18] = molecular target: T12, CCL23 (human, UniProt P55773 22-120)
T12 chain: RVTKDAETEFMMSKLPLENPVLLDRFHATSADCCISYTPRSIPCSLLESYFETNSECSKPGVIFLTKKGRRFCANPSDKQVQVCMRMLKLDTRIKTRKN

[19] = molecular target: T13, CCL19 (Homo sapiens)
T13 chain: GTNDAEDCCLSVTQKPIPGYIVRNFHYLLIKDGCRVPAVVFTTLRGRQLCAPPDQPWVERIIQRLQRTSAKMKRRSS

[20] = molecular target: T14, CCL8 (Homo sapiens)
T14 chain: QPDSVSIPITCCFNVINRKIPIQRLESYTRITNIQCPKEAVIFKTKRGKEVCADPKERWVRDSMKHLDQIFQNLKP

[21] = molecular target: T15, CCL16 (Homo sapiens)
T15 chain: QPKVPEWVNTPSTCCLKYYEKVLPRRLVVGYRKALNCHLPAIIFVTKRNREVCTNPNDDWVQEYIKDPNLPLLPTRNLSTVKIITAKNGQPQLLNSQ

[22] = molecular target: B1
[23] = molecular target: T16, CCL3 (human, UniProt P10147 24-92)
T16 chain: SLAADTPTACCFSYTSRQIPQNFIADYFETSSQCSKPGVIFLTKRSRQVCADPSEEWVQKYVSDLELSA

[24] = molecular target: CXCL1 (human, UniProt P09341 35-107)
[25] = molecular target: CXCL3 (human, UniProt P19876 35-107)
[26] = molecular target: CXCL6 (human)
[27] = molecular target: CXCL5 (human)
[28] = molecular target: CXCL2 (human, UniProt P19875 35-107)
[29] = molecular target: CXCL8 (human)
Sequence of CXCL8 (human) (chain, as listed by the source): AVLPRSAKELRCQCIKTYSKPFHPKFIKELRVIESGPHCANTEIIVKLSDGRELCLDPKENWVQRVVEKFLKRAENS

Binder: B1
- Kd [1]: 6.4 nM
- Kd [2]: 5.3 nM

Binder: B2
- Kd [3]: 49.3 nM
- Kd [4]: 4.33 nM
- Kd [5]: 13 nM
- Kd [6]: 6.1 nM
- Kd [7]: 0.663 nM
- Kd [8]: 13 nM
- Kd [9]: 20 nM
- Kd [10]: 6.69 nM
- Kd [11]: 26 nM
- Kd [12]: 9.78 nM
- Kd [13]: 12.2 nM
- Kd [14]: 15.7 nM
- Kd [15]: 3.79 nM
- Kd [16]: 24 nM
- Kd [17]: 1.4 nM
- Kd [18]: 0.772 nM
- Kd [19]: 3.9 nM
- Kd [20]: 56.3 nM
- Kd [21]: 1.3 nM
- Kd [22]: 8.97 nM
- Kd [23]: 35.5 nM

Binder: B3
- Kd [24]: 5.8 nM
- Kd [25]: 70 nM
- Kd [26]: 63 nM
- Kd [27]: 30 nM
- Kd [28]: 51 nM
- Kd [29]: 2.9 nM

Binder: B4
- Kd [1]: 4.5 nM
- Kd [2]: 5.4 nM
